Assay results from the supplement of paper PMC11246515.
± gives the standard deviation of the averaged measurements.

Experiment: total protein half-life in vivo (active degradation + dilution); higher = more stable protein
[1] = E. coli NCM3722 delta-clpP delta-lon delta-hslV, growth: N-lim chemostat, doubling time 6 h
[2] = E. coli NCM3722 delta-clpP, growth: N-lim chemostat, doubling time 6 h
[3] = E. coli NCM3722 delta-hslV, growth: N-lim chemostat, doubling time 6 h
[4] = E. coli NCM3722 delta-lon, growth: N-lim chemostat, doubling time 6 h
[5] = E. coli NCM3722 delta-smpB, growth: N-lim chemostat, doubling time 6 h
[6] = wild type E. coli NCM3722, growth: C-lim chemostat, doubling time 3 h
[7] = wild type E. coli NCM3722, growth: C-lim chemostat, doubling time 6 h
[8] = wild type E. coli NCM3722, growth: C-lim chemostat, doubling time 12 h
[9] = wild type E. coli NCM3722, growth: N-lim chemostat, doubling time 6 h
[10] = wild type E. coli NCM3722, growth: N-lim chemostat, doubling time 12 h
[11] = wild type E. coli NCM3722, growth: P-lim chemostat, doubling time 6 h
[12] = wild type E. coli NCM3722, growth: P-lim chemostat, doubling time 12 h

MTETIKVSESLELHAVAENHVKPLYQLICKNKTWLQQSLNWPQFVQSEEDTRKTVQGNVMLHQRGYAKMFMIFKEDELIGVISFNRIEPLNKTAEIGYWLDESHQGQGIISQALQALIHHYAQSGELRRFVIKCRVDNPQSNQVALRNGFILEGCLKQAEFLNDAYDDVNLYARIIDSQ
total protein half-life in vivo [1]: 4.21 ± 0.68 h | total protein half-life in vivo [2]: 4.2 ± 0.35 h | total protein half-life in vivo [3]: 3.75 ± 0.27 h | total protein half-life in vivo [4]: 3.31 ± 0.19 h | total protein half-life in vivo [5]: 4.22 ± 0.22 h | total protein half-life in vivo [6]: 3.18 ± 0.37 h | total protein half-life in vivo [7]: 5.79 ± 0.19 h | total protein half-life in vivo [8]: 8.82 ± 2.3 h | total protein half-life in vivo [9]: 4.47 h | total protein half-life in vivo [10]: 6.48 ± 0.098 h | total protein half-life in vivo [11]: 5.61 ± 0.16 h | total protein half-life in vivo [12]: 13.7 ± 0.43 h

MLILISPAKTLDYQSPLTTTRYTLPELLDNSQQLIHEARKLTPPQISTLMRISDKLAGINAARFHDWQPDFTPANARQAILAFKGDVYTGLQAETFSEDDFDFAQQHLRMLSGLYGVLRPLDLMQPYRLEMGIRLENARGKDLYQFWGDIITNKLNEALAAQGDNVVINLASDEYFKSVKPKKLNAEIIKPVFLDEKNGKFKIISFYAKKARGLMSRFIIENRLTKPEQLTGFNSEGYFFDEDSSSNGELVFKRYEQR [P0A8I3]
total protein half-life in vivo [1]: 2.9 ± 0.42 h | total protein half-life in vivo [2]: 2.57 ± 0.31 h | total protein half-life in vivo [3]: 2.665 ± 0.025 h | total protein half-life in vivo [4]: 3.07 ± 0.18 h | total protein half-life in vivo [5]: 2.63 ± 0.37 h | total protein half-life in vivo [6]: 2.66 ± 0.069 h | total protein half-life in vivo [7]: 3.57 ± 0.5 h | total protein half-life in vivo [8]: 6.32 ± 0.39 h | total protein half-life in vivo [9]: 2.53 ± 0.26 h | total protein half-life in vivo [10]: 3.4738 ± 0.0021 h | total protein half-life in vivo [11]: 3.39 ± 0.057 h | total protein half-life in vivo [12]: 6.11 ± 0.75 h

MIWKRHLTLDELNATSDNTMVAHLGIVYTRLGDDVLEAEMPVDTRTHQPFGLLHGGASAALAETLGSMAGFMMTRDGQCVVGTELNATHHRPVSEGKVRGVCQPLHLGRQNQSWEIVVFDEQGRRCCTCRLGTAVLG [P0A8Y8]
total protein half-life in vivo [1]: 6.69 h

MSLPHLSLADARNLHLAAQGLLNKPRRRASLEDIPATISRMSLLQIDTINIVARSPYLVLFSRLGNYPAQWLDESLARGELMEYWAHEACFMPRSDFRLIRHRMLAPEKMGWKYKDAWMQEHEAEIAQLIQHIHDKGPVRSADFEHPRKGASGWWEWKPHKRHLEGLFTAGKVMVIERRNFQRVYDLTHRVMPDWDDERDLVSQTEAEIIMLDNSARSLGIFREQWLADYYRLKRPALAAWREARAEQQQIIAVHVEKLGNLWLHDDLLPLLERALAGKLTATHSAVLSPFDPVVWDRKRAEQLFDFSYRLECYTPAPKRQYGYFVLPLLHRGQLVGRMDAKMHRQTGILEVISLWLQEGIKPTTTLQKGLRQAITDFANWQQATRVTLGCCPQGLFTDCRTGWEIDPVA
total protein half-life in vivo [1]: 6.77 h

MTAFSTLNVLPPAQLTNLNELGYLTMTPVQAAALPAILAGKDVRVQAKTGSGKTAAFGLGLLQQIDASLFQTQALVLCPTRELADQVAGELRRLARFLPNTKILTLCGGQPFGMQRDSLQHAPHIIVATPGRLLDHLQKGTVSLDALNTLVMDEADRMLDMGFSDAIDDVIRFAPASRQTLLFSATWPEAIAAISGRVQRDPLAIEIDSTDALPPIEQQFYETSSKGKIPLLQRLLSLHQPSSCVVFCNTKKDCQAVCDALNEVGQSALSLHGDLEQRDRDQTLVRFANGSARVLVATDVAARGLDIKSLELVVNFELAWDPEVHVHRIGRTARAGNSGLAISFCAPEEAQRANIISDMLQIKLNWQTPPANSSIATLEAEMATLCIDGGKKAKMRPGDVLGALTGDIGLDGADIGKIAVHPAHVYVAVRQAVAHKAWKQLQGGKIKGKTCRVRLLK
total protein half-life in vivo [1]: 5.81 ± 1.4 h | total protein half-life in vivo [2]: 2.58 h | total protein half-life in vivo [7]: 3.78 h | total protein half-life in vivo [8]: 8.81 ± 4.4 h | total protein half-life in vivo [11]: 2.59 h

MPKPGILKSKSMFCVIYRSSKRDQTYLYVEKKDDFSRVPEELMKGFGQPQLAMILPLDGRKKLVNADIEKVKQALTEQGYYLQLPPPPEDLLKQHLSVMGQKTDDTNK [P0AB43]
total protein half-life in vivo [1]: 4.94 ± 0.22 h | total protein half-life in vivo [2]: 4.28 ± 0.62 h | total protein half-life in vivo [3]: 3.56 ± 0.33 h | total protein half-life in vivo [4]: 4.78 ± 0.62 h | total protein half-life in vivo [5]: 3.88 ± 0.55 h | total protein half-life in vivo [6]: 2.71 ± 0.15 h | total protein half-life in vivo [7]: 4.59 ± 0.29 h | total protein half-life in vivo [8]: 8.2 ± 0.32 h | total protein half-life in vivo [9]: 3.5 h | total protein half-life in vivo [10]: 5.72 ± 0.24 h | total protein half-life in vivo [11]: 4.48 ± 0.068 h | total protein half-life in vivo [12]: 8.702 ± 0.013 h

MILTDPEWQAVLLSLKVSSLAVLFSLPFGIFFAWLLVRCTFPGKALLDSVLHLPLVLPPVVVGYLLLVSMGRRGFIGERLYDWFGITFAFSWRGAVLAAAVMSFPLMVRAIRLALEGVDVKLEQAARTLGAGRWRVFFTITLPLTLPGIIVGTVLAFARSLGEFGATITFVSNIPGETRTIPSAMYTLIQTPGGESGAARLCIISIALAMISLLISEWLARISRERAGR [P0AF01]
total protein half-life in vivo [1]: 4.97 h | total protein half-life in vivo [2]: 6.15 h | total protein half-life in vivo [6]: 3.03 h | total protein half-life in vivo [7]: 4.97 h | total protein half-life in vivo [8]: 9.85 h | total protein half-life in vivo [9]: 5.21 h | total protein half-life in vivo [10]: 9.16 h

MAKHLFTSESVSEGHPDKIADQISDAVLDAILEQDPKARVACETYVKTGMVLVGGEITTSAWVDIEEITRNTVREIGYVHSDMGFDANSCAVLSAIGKQSPDINQGVDRADPLEQGAGDQGLMFGYATNETDVLMPAPITYAHRLVQRQAEVRKNGTLPWLRPDAKSQVTFQYDDGKIVGIDAVVLSTQHSEEIDQKSLQEAVMEEIIKPILPAEWLTSATKFFINPTGRFVIGGPMGDCGLTGRKIIVDTYGGMARHGGGAFSGKDPSKVDRSAAYAARYVAKNIVAAGLADRCEIQVSYAIGVAEPTSIMVETFGTEKVPSEQLTLLVREFFDLRPYGLIQMLDLLHPIYKETAAYGHFGREHFPWEKTDKAQLLRDAAGLK [P0A817]
total protein half-life in vivo [1]: 2.78 ± 0.62 h | total protein half-life in vivo [2]: 2.16 ± 0.45 h | total protein half-life in vivo [3]: 2.01 ± 0.14 h | total protein half-life in vivo [4]: 2.41 ± 0.18 h | total protein half-life in vivo [5]: 2.15 ± 0.17 h | total protein half-life in vivo [6]: 2.97 ± 0.16 h | total protein half-life in vivo [7]: 4.63 ± 0.68 h | total protein half-life in vivo [8]: 6.86 ± 0.4 h | total protein half-life in vivo [9]: 2.1 ± 0.1 h | total protein half-life in vivo [10]: 2.72 ± 0.053 h | total protein half-life in vivo [11]: 5.17 ± 0.096 h | total protein half-life in vivo [12]: 9.5 ± 0.32 h

MQTIIRVEKLAKTFNQHQALHAVDLNIHHGEMVALLGPSGSGKSTLLRHLSGLITGDKSVGSHIELLGRTVQREGRLARDIRKSRAHTGYIFQQFNLVNRLSVLENVLIGALGSTPFWRTCFSWFTGEQKQRALQALTRVGMVHFAHQRVSTLSGGQQQRVAIARALMQQAKVILADEPIASLDPESARIVMDTLRDINQNDGITVVVTLHQVDYALRYCERIVALRQGHVFYDGSSQQFDNERFDHLYRSINRVEENAKAA
total protein half-life in vivo [11]: 0.231 ± 0.32 h | total protein half-life in vivo [12]: 0.931 ± 0.95 h

MLNLFVGLDIYTGLLLLLALAFVLFYEAINGFHDTANAVAAVIYTRAMQPQLAVVMAAFFNFFGVLLGGLSVAYAIVHMLPTDLLLNMGSTHGLAMVFSMLLAAIIWNLGTWFFGLPASSSHTLIGAIIGIGLTNALLTGSSVMDALNLREVTKIFSSLIVSPIVGLVIAGGLIFLLRRYWSGTKKRDRIHRIPEDRKKKKGKRKPPFWTRIALIVSAAGVAFSHGANDGQKGIGLVMLVLVGIAPAGFVVNMNASGYEITRTRDAVTNFEHYLQQHPELPQKLIAMEPPLPAASTDGTQVTEFHCHPANTFDAIARVKTMLPGNMESYEPLSVSQRSQLRRIMLCISDTSAKLAKLPGVSKEDQNLLKKLRSDMLSTIEYAPVWIIMAVALALGIGTMIGWRRVAMTIGEKIGKRGMTYAQGMAAQMTAAVSIGLASYIGMPVSTTHVLSSAVAGTMVVDGGGLQRKTVTSILMAWVFTLPAAIFLSGGLYWIALQLI
total protein half-life in vivo [1]: 6.37 h | total protein half-life in vivo [2]: 5.68 h | total protein half-life in vivo [5]: 5.61 ± 0.43 h | total protein half-life in vivo [9]: 6.47 h | total protein half-life in vivo [11]: 6.03 ± 0.27 h | total protein half-life in vivo [12]: 13.1 h

MPEPVAEPALNGLRLNLRIVSIVMFNFASYLTIGLPLAVLPGYVHDVMGFSAFWAGLVISLQYFATLLSRPHAGRYADSLGPKKIVVFGLCGCFLSGLGYLTAGLTASLPVISLLLLCLGRVILGIGQSFAGTGSTLWGVGVVGSLHIGRVISWNGIVTYGAMAMGAPLGVVFYHWGGLQALALIIMGVALVAILLAIPRPTVKASKGKPLPFRAVLGRVWLYGMALALASAGFGVIATFITLFYDAKGWDGAAFALTLFSCAFVGTRLLFPNGINRIGGLNVAMICFSVEIIGLLLVGVATMPWMAKIGVLLAGAGFSLVFPALGVVAVKAVPQQNQGAALATYTVFMDLSLGVTGPLAGLVMSWAGVPVIYLAAAGLVAIALLLTWRLKKRPPEHVPEAASSS
total protein half-life in vivo [2]: 3.62 h
